The values that follow are results of earlier work, collected in paper PMC7970000.

Usually Kd stands for the constant that tells how readily two partners part at equilibrium.

Series [1] has as its target SNX3-retromer complex (Homo sapiens) (UniProt O60493).
Series [2] concerns the target VPS29 (Homo sapiens) (UniProt Q9UBQ0).
The target of a further series is retromer (Homo sapiens) (UniProt O75436).
Series [3] concerns the target VPS29 (Homo sapiens) (UniProt Q9UBQ0). This is another data set of the same source.

Read-outs that look alike come from different tables or passages of the source.

Chain of UniProt O60493 (O60493 2-162, chain 1 of 2): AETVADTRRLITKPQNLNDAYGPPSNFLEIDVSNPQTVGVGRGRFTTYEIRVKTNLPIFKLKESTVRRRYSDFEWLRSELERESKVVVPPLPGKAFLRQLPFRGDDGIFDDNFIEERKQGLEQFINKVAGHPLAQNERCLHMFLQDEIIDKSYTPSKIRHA
Chain of UniProt O60493 (O75436 whole entry, chain 2 of 2, further chain): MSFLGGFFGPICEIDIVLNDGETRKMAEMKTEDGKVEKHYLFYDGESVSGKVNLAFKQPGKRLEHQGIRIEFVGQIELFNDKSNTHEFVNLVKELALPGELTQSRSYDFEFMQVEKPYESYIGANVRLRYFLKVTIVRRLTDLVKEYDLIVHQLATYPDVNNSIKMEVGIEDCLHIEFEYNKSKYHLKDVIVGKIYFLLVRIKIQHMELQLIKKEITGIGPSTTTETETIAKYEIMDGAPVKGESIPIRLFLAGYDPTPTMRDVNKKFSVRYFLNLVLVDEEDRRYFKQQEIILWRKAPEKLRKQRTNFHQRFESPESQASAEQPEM
Chain of UniProt O75436 (O75436 whole entry): as the sequence (O75436 whole entry, chain 2 of 2, further chain) above

As to DMT1-II (from UniProt P49281), the Kd in series [1] was 127 µM.

For TBC1D5 (from UniProt Q92609), the dissociation constant (Kd) with VPS29 (Homo sapiens) [2] is 20 µM; with retromer (Homo sapiens) it was 0.335 µM.

Regarding “VARP CHPLCxCxxC motif (from UniProt Q96NW4)”, the Kd with VPS29 (Homo sapiens) [3] was 3.5 µM.
